Our source for the Km and Kd values is publication PMC5854381, “Dynamics of Scabin toxin. A proposal for the binding mode of the DNA substrate”.

Data set [1] has as its system NC(=O)c1ccc[n+]([C@@H]2O[C@H](COP(=O)(O)OP(=O)(O)OC[C@H]3O[C@@H](n4cnc5c4ncn4ccnc54)[C@H](O)[C@@H]3O)[C@@H](O)[C@H]2O)c1. The data set can be described thus: purified protein. The conditions noted are these: pH 7.9.
For the next data set, the target named is Scabin WT (Streptomyces scabies, UniProt C9Z6T8 26-200). The data set can be described thus: fluorescence anisotropy; no NAD+ mentioned; text labels this WT value N110A [sic]; Anisotropy: 5 uM Cy3-dsDNA, 25 mM Tris-HCl pH 8.2, 100 mM NaCl, 22 C. Particulars: protein: recombinant; label: 5' Cy3 on strand 1; blunt. Background: Fluorescence polarisation rises when a labelled molecule tumbles more slowly, as on binding a larger partner.

(Streptomyces scabiei 87.22): in data set [1], the Km is 68 ± 3 µM.

B1: Cy3-dsDNA 21 bp (dsDNA)
DNA 1: GGAAGAGAGAGAGAAAGAGAG
DNA 2: CTCTCTTTCTCTCTCTCTTCC
Regarding B1, the Kd in the data set with Scabin WT was found to be 51 ± 4 µM.

One may read the Km as the concentration of substrate that gives half-maximal velocity. One may read the Kd as the constant that tells how readily two partners part at equilibrium.
